Reference: patent US10975365B2, “Di-enzymatic chimeric endolysin” (Government of the United States of America, as represented …, priority 2018, dated 2021)

B1: ClyX-1: chimeric endolysin, Seq. ID No. 17: Cpl-1 CBD fused between GyH and CHAP catalytic domains of PlyCA (protein)
chain: MSKKYTQQQYEKYLAQPANNTFGLSPQQVADWFMGQAGARPVINSYGVNASNLVSTYIPKMQEYGVSYTLFLMYTVFEGGGAGNWINHYMYDTGSNGLECLEHDLQYIHGVWETYFPPALSAPECYPATEDNAGALDRFYQSLPGRTWGDVMIPSTMAGNAWVWAYNYCVNNQGAAPLVYFGNPYDSQIDSLLAMGADPFTGGSIMEEDDKPKTAGTWKQDSKGWWFRRNNGSFPYNKWEKIGGVWYYFDSKGYCLTSEWLKDNEKWYYLKDNGAMATGWVLVGSEWYYMDDSGAMVTGWVKYKNNWYYMTNERGNMVSNEFIKSGKGWYFMNTNGELADNPSFTKEPDGLITVAGSDRVAANLANAQAQVGKYIGDGQCYAWVGWWSARVCGYSISYSTGDPMLPLIGDGMNAHSIHLGWDWSIANTGIVNYPVGTVGRKEDLRVGAIWCATAFSGAPFYTGQYGHTGIIESWSDTTVTVLEQNILGSPVIRSTYDLNTFLSTLTGLITFK
modifications: Bacteriophage
notes: ID No. 17: Cpl-1 CBD fused between GyH and CHAP catalytic domains of PlyCA
B2: ClyX-4: the full-length PlySs2 with an additional C′ terminal Cpl-1 EAD (GH25); Seq. ID No. 22 (protein)
chain: MTTVNEALNNVRAQVGSGVSVGNGECYALASWYERMISPDATVGLGAGVGWVSGAIGDTISAKNIGSSYNWQANGWTVSTSGPFKAGQIVTLGATPGNPYGHVVIVEAVDGDRLTILEQNYGGKRYPVRNYYSAASYRQQVVHYITPPGTVAQSAPNLAGSRSYRETGTMTVTVDALNVRRAPNTSGEIVAVYKRGESFDYDTVIIDVNGYVWVSYIGGSGKRNYVATGATKDGKRFGNAWGTFKMVKKNDLFVDVSSHNGYDITGILEQMGTTNTIIKISESTTYLNPCLSAQVEQSNPIGFYHFARFGGDVAEAEREAQFFLDNVPMQVKYLVLDYEDDPSGDAQANTNACLRFMQMIADAGYKPIYYSYKPFTHDNVDYQQILAQFPNSLWIAGYGLNDGTANFEYFPSMDGIRWWQYSSNPFDKNIVLLDDEEDDKPKTAGTWKQDSKGWWFRRNNGSFPY
modifications: Bacteriophage
notes: the full-length PlySs2 with an additional C′ terminal Cpl-1 EAD (GH25); ID No. 22

Tests used:
[1] = system: S. pneumoniae ATCC TIGR 4; test: Bacteriolytic (turbidity reduction) assay; type: cell-based, Streptococcus pneumoniae; settings: 5 μg/ml; OD from 1.0 to 0.2 within the first 2 min; overnight culture
Experimental: (§1) In a bacteriolytic assay, bacterial culture (stationary phase) was harvested at 5,000 for 10 min at 4° C., washed twice and resuspended in PBS buffer, pH7.4. In a 96-well titration plate, the resuspended bacterial solution was mixed 1:1 (u/u) with endolysin to a final OD600 between 0.8 to 1.0. In each run, PBS was included as a negative control. Spectrophotometric readings (OD600) were taken every 15 s over 10 min on a spectrophotometer. Vmax was calculated as the slope of the linear portion and represented the endolysins activity. All experiments were conducted in triplicate to get the standard deviation.
(§2) Bacteriolytic capacity of ClyX-1 and ClyX-1 linkers were analyzed via the turbidity reduction assay against the overnight culture of S. pneumoniae ATCC TIGR 4. Both enzymes-induced lysis of the bacterial peptidoglycan caused a decrease in OD from 1.0 to 0.2 (80%) within the first 2 min of the turbidity assay at 5 μg/ml as shown in FIG. 9a. The linkers were the only difference between these two enzymes, and the unstructured region of PlyCA GyH, PlyCA CHAP, and Cpl-1 CBD provide optimal flexibility for enzymatical activity. High lytic activity correlated with data for bacterial survival after chimera treatment. ClyX-1 sterilized cultures for 5 min, causing a decrease in TIGR 4 viability of ˜6 log, at as low as 0.5 μg/ml (FIG. 9b). […]

TIGR 4 = test: Bactericidal assay (log killing), 5 min; type: cell-based, Streptococcus pneumoniae; settings: 0.5 μg/ml
Experimental: (§3) With regard to bactericidal assay, bacterial cells were diluted to 2× rich media to generate a final concentration of 5.0×10^6 CFU/ml. 100 μl of the diluted bacterial culture was added into a 96-well titration plate in triplicate and mixed with 100 μl of sterile-filtered enzymes. Plates were sealed and incubated at 37° C. for 5-60 min. After the incubation, bacterial cells were serially diluted in 10-fold increments into sterile PBS and plated on THY/TSB agar. Log killing was calculated as follows: −log[(CFU under enzyme treatment)/(CFU under PBS treatment)].
as §2, with “9b). Stability of ClyX-1 at different temperature and pH was surveyed to determine optimal conditions.” for “9b).”

[2] = system: stationary phase S. pneumoniae TIGR 4; test: Temperature stability and pH optimum of ClyX-1 by turbidity reduction assay; type: cell-based, Streptococcus pneumoniae
Experimental: as §1
The optimal biochemical conditions for ClyX-1 against stationary phase S. pneumoniae TIGR 4 were determined using the turbidity reduction assay described above. For temperature stability, ClyX-1 was incubated at indicated temperatures (4° C., 16° C., 25° C., 37° C., 45° C., 55° C., or 65° C.)/tsb for 30 min, recovered on ice for 5 min, and subjected to the spectrophotometric analysis. For optimal pH condition, pneumococci TIGR 4 were suspended in 40 mM boric acid/phosphoric acid (BP) buffer, pH 3-10, and were challenged against ClyX-1.

S. pneumoniae strains = test: Antimicrobial spectrum of ClyX-1 by turbidity reduction assay, pneumococci; type: cell-based, Streptococcus pneumoniae; settings: 14 most frequent serotypes, Lyt 4.4, R36A and R6; 5 μg/ml, 10 min
Experimental: (§4) (b) Bactericidal effects of ClyX-1 against stationary phase S. pneumoniae R6. Different concentrations of ClyX-1 were mixed with 10^6 overnight bacterial culture for 5 min. Log killing was determined through the comparisons of PBS treatment and ClyX-1 treatment. (c)-(d) Biochemical characterization of ClyX-1. The effects of temperature stability (c) and pH (d) were evaluated. […] of ClyX-1 was assayed for lytic activity via turbidity reduction assay against stationary phase S. pneumoniae TIGR 4 cells for 10 min. Values were presented as percentage of lytic activity in a relation to activity observed for pH 7 and 37° C. (e) The host range of ClyX-1. Multiple strains of streptococci were tested for susceptibility. The bacterial cells were washed twice and resuspended in PBS to a final OD600 of 0.9-1.0. The changes of OD600 were presented after treating with […] of ClyX-1 for 10 min;
as §1, with “In each run, PBS was included as a negative control.” left out, “All experiments were conducted in triplicate to get the standard deviation.” left out

other streptococci = test: Antimicrobial spectrum of ClyX-1 by turbidity reduction assay, other streptococci; type: cell-based; settings: 5 μg/ml, 10 min
Experimental: as §4
as §1, with “In each run, PBS was included as a negative control.” left out, “All experiments were conducted in triplicate to get the standard deviation.” left out

S. pneumoniae D39 = test: Bactericidal assay on D39, ClyX-1 compared with Cpl-1 and PlyCA; type: cell-based, Streptococcus pneumoniae
Experimental: (§5) (a) Different concentrations of ClyX-1 and Cpl-1 were mixed with 10^6 overnight S. pneumoniae D39 culture for 5 min. The cells were then serial diluted and plated on the THY plates. Log killing was determined through the comparisons of PBS treatment and the enzymes treatment. (b) Female BALB/c mice were injected intraperitoneally with pneumococcus strain S. pneumoniae NS26 at a single dose at 2.95×10^7 colony forming units (CFU) per mouse. One hour after the infection, mice were intraperitoneally received a single dose of different treatments in different amount per mouse. The lines represent the percentage survival of mice for 10 days. The data was plotted as Kaplan-Meier survival curves and analyzed via the Log-rank (Mantel-Cox) test (*P<0.001; **P<0.0001);
as §3
Bactericidal assays were repeated using the three lysins at different concentrations (0.5 μg/ml to 50 μg/ml) on a different strain, D39 (FIG. 10a).

S. pneumoniae NS26 = test: Mouse systemic infection model, survival; type: in vivo, female BALB/c mice; settings: 10 days
Experimental: as §5
With regard to in vivo mouse infection models, mouse infection experiments were carried out in an ABSL-2 lab. In the mouse systemic infection model, female BALB/c mice (6-8 weeks old) were injected intraperitoneally with S. pneumoniae NS26 at a single dose of 2.95×10^7 CFU/mouse and divided randomly into multiple groups. Bacterial burden in blood and organs in mice 1 h post-infected were confirmed by plating on THY agar as described previously. One hour post-infection, these groups intraperitoneally received a single dose of 20, 40, or 80 μg/mouse of […] (n=10); 20, 40, or 80 μg/mouse of Cpl-1 (n=10); 100 μg/mouse of penicillin G (n=10); or an equal volume of PBS buffer (n=10). The survival data for all groups were recorded for 10 days.
To validate the in vitro bactericidal activity of ClyX-1, we applied a mouse systemic infection model to test the in vivo efficacy of the enzyme. Mice were challenged to a 2-days lethal-dose of 2.95×10^7 CFU. One hour after infection, the mice were intraperitoneally injected a single dose containing different amount of either ClyX-1 or Cpl-1 ranging from 20 μg-80 μg. The antibiotics control was 100 μg/mouse of penicillin G, and the negative control was as PBS, pH7.4 buffer. The mice were then observed and recorded for the survival data. All the mice treated with PBS buffer died within the first 2 days.

[3] = system: GAS, GBS, GCS, S. uberis, S. suis and S. mutants; test: Bactericidal activity of ClyX-4 on streptococci; type: cell-based; settings: 50 μg/ml; 1 h
Experimental: (a) Bactericidal effects of ClyX-3 against five strains of stationary phase S. pneumoniae. 5 μg/ml of enzymes were mixed with 10^6 bacterial cultures for 5 min. Log killing was determined through the comparisons of PBS treatment and enzymes treatment. (b) Bactericidal effects of ClyX-4 against stationary phase streptococci. 50 μg/ml of enzymes were mixed with 10^6 bacterial culture for 1 h. Log killing was determined through the comparisons of PBS treatment and enzymes treatment;
as §3
With regard to applying the design rationale to add a C′ terminal EAD such that two EADs are disposed at each side of the CBD, the process was used to engineer endolysins for increased activity. […]

[4] = system: other streptococci strains; test: MIC test on other streptococci strains; type: cell-based
Experimental: The MICs of enzymes and antibiotics were determined in a 96-well titration plate in triplicate. Briefly, the overnight pneumococcal culture was diluted with 2×THY to obtain a final concentration of 1×10^7 CFU/ml, and other bacterial species were diluted with 2-folded medium to 1×10^5 CFU/ml. 100 μl of the diluted bacterial culture was subjected into each well, mixing with the serial 2-fold diluted 100 μl of enzymes/antibiotics. PBS buffer was used as a negative control. The plates were sealed via parafilm and statically incubated at 37° C. incubator for 24 h. The MIC was defined as the lowest concentration of treatment that inhibited visible growth of the bacterium.
With regard to applying the design rationale to add a C′ terminal EAD such that two EADs are disposed at each side of the CBD, the process was used to engineer endolysins for increased activity. We created the ClyX-3, the full-length Cpl-1 with an additional C′ terminal PlyC CHAP, and ClyX-4, the full-length PlySs2 with an additional C′ terminal Cpl-1 EAD (GH25) (FIG. 4 and FIG. 6). These constructs were expressed and purified as soluble proteins.

[5] = incubated 30 min at indicated temperature before assay

Row | Molecule | decrease in OD in turbidity assay [1] [%] | decrease in viability (TIGR 4) [log] | optimal pH condition ([2]; BP buffer pH 3-10) | pH above which activity is lost (protein precipitation) ([2]; BP buffer pH 3-10) | pH below which activity is lost (protein precipitation) ([2]; BP buffer pH 3-10) | temperature above which the activity rapidly dropped [2, 5] | temperature below which the enzyme was stable with highest activity [2, 5] | susceptibility of all tested pneumococcal strains (S. pneumoniae strains) | lysis of other streptococci (other streptococci) | fold increase in activity in vitro against S. pneumoniae compared to the parental enzyme (S. pneumoniae D39; versus parental Cpl-1) [fold] | concentration at which the bacteria culture was sterilized (S. pneumoniae D39; within 5 min, tested 0.5 to 50 μg/ml) [µg/mL] | mice rescued (survival) (S. pneumoniae NS26; 20 μg single i.p. dose 1 h after infection) [%] | mice rescued (survival) (S. pneumoniae NS26; 40 μg single i.p. dose 1 h after infection) [%] | mice rescued (survival) (S. pneumoniae NS26; 80 μg single i.p. dose 1 h after infection) [%] | bactericidal activity compared with PlySs2 [3] | activity by MIC compared with parental endolysin and ClyX-2 [4]
1 | B1 | 80 | ~6 | 6.5 | above 8 | below 4 | above 45 °C | below 37 °C | susceptible | lysis of no other streptococci tested | ~100 | ≤ 0.5 | 30 | 40 | 80 | – | –
2 | B2 | – | – | – | – | – | – | – | – | – | – | – | – | – | – | more active than PlySs2 | better than parental endolysins
